The text below walks through data of patent US20100143336A1.

The experiment addresses human Toll-like Receptor 2, wild type (human) (UniProt O60603). Nature of the experiment: cell-based or functional assay.
UniProt O60603, sequence (O60603 21-784 D726E limits assumed): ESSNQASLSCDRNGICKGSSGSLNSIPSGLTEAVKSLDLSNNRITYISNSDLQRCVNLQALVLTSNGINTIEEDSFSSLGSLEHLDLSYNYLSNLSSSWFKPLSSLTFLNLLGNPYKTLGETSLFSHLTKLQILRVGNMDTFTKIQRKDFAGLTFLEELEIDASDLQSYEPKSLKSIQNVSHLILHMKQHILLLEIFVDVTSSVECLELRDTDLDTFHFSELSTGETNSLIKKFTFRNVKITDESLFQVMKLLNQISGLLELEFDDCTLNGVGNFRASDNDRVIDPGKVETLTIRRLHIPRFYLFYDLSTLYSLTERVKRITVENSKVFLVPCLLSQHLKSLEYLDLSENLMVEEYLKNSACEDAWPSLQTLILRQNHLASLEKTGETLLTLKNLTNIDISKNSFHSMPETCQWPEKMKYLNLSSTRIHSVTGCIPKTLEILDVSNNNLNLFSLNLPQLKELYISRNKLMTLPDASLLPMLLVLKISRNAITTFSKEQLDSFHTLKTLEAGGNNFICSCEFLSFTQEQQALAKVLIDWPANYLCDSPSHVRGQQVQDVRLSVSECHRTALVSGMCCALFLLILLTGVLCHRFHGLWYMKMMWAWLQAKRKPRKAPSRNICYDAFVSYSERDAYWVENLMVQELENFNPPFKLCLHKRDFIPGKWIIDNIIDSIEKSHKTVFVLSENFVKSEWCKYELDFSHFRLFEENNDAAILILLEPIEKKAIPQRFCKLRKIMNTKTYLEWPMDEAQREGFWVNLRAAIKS

With “OPN-301 anti-TLR2 monoclonal antibody (mouse Toll-like Receptor 2 (TLR2) antibody, clone T2.5, HyCult Biotechnology)”, the TNF-alpha production from U937 cells stimulated with 100 ng/ml Pam3CSK4 was found to be 30 ng/mL.
